Reference: publication PMC12739106, “Phosphate deficiency reduces nodule formation through a phosphate starvation response-like protein in Phaseolus vulgaris”

T1: PvPHR-L7 (formerly PvPHR1) (Phaseolus vulgaris, UniProt B4YEQ7 1-327)
T1 sequence: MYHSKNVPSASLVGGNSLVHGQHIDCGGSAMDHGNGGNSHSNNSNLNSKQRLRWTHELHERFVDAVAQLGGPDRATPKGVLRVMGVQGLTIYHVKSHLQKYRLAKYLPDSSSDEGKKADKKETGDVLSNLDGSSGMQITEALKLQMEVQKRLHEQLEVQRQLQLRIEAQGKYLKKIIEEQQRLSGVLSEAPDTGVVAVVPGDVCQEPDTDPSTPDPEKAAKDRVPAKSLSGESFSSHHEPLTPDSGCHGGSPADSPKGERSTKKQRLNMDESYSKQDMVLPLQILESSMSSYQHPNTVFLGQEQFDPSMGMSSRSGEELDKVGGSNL

B1: PvNIN promoter P1BS probe (dsDNA)
DNA 1: CAATTTCATTCTATAGCATATGCAACATTTTAGACAAAATCA
DNA 2: TGATTTTGTCTAAAATGTTGCATATGCTATAGAATGAAATTG
B2: PvTML promoter P1BS probe (dsDNA)
DNA 1: GAAATTAATATAAAAAGCATATACTAAAATTAAGCATATGTT
DNA 2: AACATATGCTTAATTTTAGTATATGCTTTTTATATTAATTTC

Biological target: T1, PvPHR-L7 (formerly PvPHR1)
Assay: EMSA; poly(dI-dC); outcompeted by unlabeled same-sequence probe (50, 100 or 200 nM); LightShift Chemiluminescent EMSA kit, 1x binding buffer, 50 ng/ul poly(dI-dC), 1 unit protein, 0.1 'mmol' biotin probe, unlabeled competitor 5, 10, 20 'mmol' (legend: 50, 100, 200 nM); salt, pH and temperature not stated
Settings: protein: recombinant; tags: His (pDEST17, N-terminal); chain copies: 2; 5' implied by name; blunt

Binder	binding result
B1	binds
B2	binds
